Source: EP4361176A1
Changes are numbered by the printed parent chain. Values belong to the binder of their own block, whether it stands above or below them.

Columns and labels:
[1] = molecular target: human FcγRIIb extracellular domain with C-terminal His-tag (human) (UniProt P31994); assay: SPR; binding amount / that of 04H1656-G1m/04L1610-lam1
[2] = molecular target: human FcγRIIb extracellular domain with C-terminal His-tag (human) (UniProt P31994); assay: SPR (Biacore T200), FcγRIIb, amount bound per unit captured antibody

Chain of human FcγRIIb extracellular domain with C-terminal His-tag (human) (P31994 43-217): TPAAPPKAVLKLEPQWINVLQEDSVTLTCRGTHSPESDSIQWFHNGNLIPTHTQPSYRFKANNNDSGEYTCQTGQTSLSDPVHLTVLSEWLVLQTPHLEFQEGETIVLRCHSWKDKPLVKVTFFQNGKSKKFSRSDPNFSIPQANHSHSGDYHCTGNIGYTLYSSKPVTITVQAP

Relative binding amount [1]: 1.7
Binding amount [2]: 0.014
B1: 04H1654-KT462/04L1610-lam1//04H1656-HT441/04L1610-lam1 (antibody, human IgG1, lambda)
heavy 1: QVQLVESGGGVVQPGGSLRLSCAASGFTFSSKTMNWVRQAPGKGLEWVSSISTQSHYIYYARSVRGRFTISRDNAKNSLYLQMNSLRAEDTAVYYCARYGKREDMLWVFDYWGQGTLVTVSSASTKGPSVFPLAPSSKSTSGGTAALGCLVKDYFPEPVTVSWNSGALTSGVHTFPAVLQSSGLYSLSSVVTVPSSSLGTQTYICNVNHKPSNTKVDKRVEPKSCDKTHTCPPCPAPEFQWGPMVFLFPPKPKDVLMISRTPEVTCVVVDVSDEEPEVKFNWYVDGVEVHNAKTKPREEQYNATYRVVSVLPVLHQDWLNGKEYKCKVSNDALPAPIEKTISKAKGQPREPQVYTLPPSRKEMTKNQVSLTCLVKGFYPSDIAVEWESNGQPENNYKTTPPVLDSDGSFFLYSKLTVDKSRWQQGNVFSCSVMHEALHNHYTQKSLSLSP
heavy 2: B1 heavy 1 with R62E, K101A, F239L, Q240L, W241A, M244S, D273H, K339E, K361E, K444E
light: QSALTQPPSASGSPGQSVTISCEGPSTGVGDYNWVHWYQQHPGKAPKLMIYFTSKKPSGVPDRFSGSKSGNTASLTVSGLQAEDEADYYCQTYAAPLGPMFGGGTKLTVLGQPKAAPSVTLFPPSSEELQANKATLVCLISDFYPGAVTVAWKADSSPVKAGVETTTPSKQSNNKYAASSYLSLTPEQWKSHRSYSCQVTHEGSTVEKTVAPTECS

Relative binding amount [1]: 1.5
Binding amount [2]: 0.012
B2: 04H1654-KT473/04L1610-lam1//04H1656-HT451/04L1610-lam1 (antibody)
heavy 1: B1 heavy 1 with N439A, Y441T, Q443R, S445E
heavy 2: QVQLVESGGGVVQPGGSLRLSCAASGFTFSSKTMNWVRQAPGKGLEWVSSISTQSHYIYYAESVRGRFTISRDNAKNSLYLQMNSLRAEDTAVYYCARYGAREDMLWVFDYWGQGTLVTVSSASTKGPSVFPLAPSSKSTSGGTAALGCLVKDYFPEPVTVSWNSGALTSGVHTFPAVLQSSGLYSLSSVVTVPSSSLGTQTYICNVNHKPSNTKVDKRVEPKSCDKTHTCPPCPAPELLAGPSVFLFPPKPKDVLMISRTPEVTCVVVDVSHEEPEVKFNWYVDGVEVHNAKTKPREEQYNATYRVVSVLPVLHQDWLNGKEYKCKVSNDALPAPIEETISKAKGQPREPQVYTLPPSREEMTKNQVSLTCLVKGFYPSDIAVEWESNGQPENNYKTTPPVLDSDGSFFLYSKLTVDKSRWQQGNVFSCSVMHEALHAHTTREELSLSP
light: B1 light
